Test: soluble on expression in E. coli; label from the status in PepcDB or PDB records

Row | Sequence | soluble on expression in E. coli
1 | MFGLRTRNQEAESEYRRFIKGLSDSMAMIEFDTRGIILNANDLFLSCVGYTREAIVGKHHSIFCDRGYVQSPRYQQFWDDLKMGKHKRGTFERLTSQRERLVLEASYFPIESEHGQIEKVVKIASDVTQQRLESEQKEAILNALDLSLATIEFDREGYILTANQNFLKTLGYELSDVQGKHHKLFCFDDFYQENPGFWKDLAAGQFKSGQFLRRSASGDKVYIEATYNPIFDPAGNVIKVVKFASDITDKVQRDLNISQAIADSSFIARNASEEATSNVCGAEHSLNEFRTMIEEVLRAVTACDDK | not soluble
2 | KALVSIQASNIPKTAYTATDFVDMNSYSYNNITTSLPGNYADFAVIEVNLNLKNQRDQQILHDFVKPAIKAYKALGDTLELFSAKPLNQFIEQNYYLLGYPVINKGNNTANLLLAQQKSFDHNNSDHNQKSQWFTK | not soluble
3 | MGSDKIHHHHHHMYAYHPEDIEDIKELIAQTENEQVEFKETTGQLERGMETLCAFLNGEGGTVLFGITDKGKIIGQEVADVTKRSIAEAINRLEPTANVHVFYIPLPDSSKKIIALHVENSRDNRPFCYKSRPYYRVESVTSAMPQAVYNQLLIIRDEAKYRWELFENPKLSLQDMDENEILKTVRLGIECGRLPENTGNNLSIILEKFGLLVNGVLNNAAAVLFANRELIEYPQCLLRLARFKGTDKMVFMDNQRVQGNLFQLLDSAMTFIFKHLSLSGTTEALEREEHLTIPYKAIREGIINSLCHRQFRTPGGSVGIAIYDDRVEIENPGTFPHGWDMERMKSEHCSEPRNPLIANVLYKRKLLENWGRGISLMTEECRKANLPEPEFKLANGFVILVFRYGTNNHTSTMQVPHKHHISTIQVQSLLNIMEYNTYSVKEMMELLELKNRSYFSKEYLKPAVETGVIEPIFPDQPKSPKQKYRLTEKGKALLEKR | not soluble
4 | MAHHHHHHMPLVKAETDASFVAEVAESVGGACARMNDHISVMIEEYLRRRTQQVRDDVKQELDAVRVHLERKIADAEAAKAVEEERYHKKKVQVLQAAVELQKMHANLHLQRLFHTWRRCADVRQERRRLAEEAHIHIGRLSLFHAYMQWRLFAAALRQKRLEAKEAHKRDCREQELLGQIEGYQRQLEGERAKDASLNEKLKEAFVRGMCALNREAVHVLHGSEENQDADVEAIAEILSRESHSRHRSVTPGHMDSSTLSNVHGHGVCPVHHIDAKGSFYHPCFSPGYCEYDRHSGSRAPVSSAVPPSASGPFVVSADPKSARSIDSSPPVPFRHLSKSSTTRWRM | not soluble
5 | MSSSLFAPTIETIDYPFPPKPVPLSDAQKADYKARIKQLLIEKDAVLVAHYYTDPEIQALAEETGGCVSDSLEMARFGRDHPAKTLIVAGVKFMGETAKILSPEKTILMPTLEATCSLDLGCPIDKFSAFCDAHPDHTVVVYANTSAAVKARADWVVTSSIALEIVEHLDSEGKKIIWGPDRHLGSYIAKQTGAEMLMWQGDCIVHDEFKANALRDLKSVYPDAAILVHPESPASVVAMADAVGSTSQLIKAAQTMPNERFIVATDRGIFYKMQQAAPGKTLIEAPTGGNGATCKSCAHCPWMAMNGLKAIEASLSNSDKTTHEIFVDEDLRVKALIPLTRMLDFAKTLNMKVKGNALEHHHHHH | not soluble
6 | SQWIMHKTSTPEFCASCHSMSYPQQEWEGSSHFANAKGVRAQCSDCHIPKEGWHYVKAKFIALKDLWYEAQGKIENKEKYEAHRAEMAQRVWKDMKANDSETCRSCHSFDAMELSKQTKLAKQTHTEAQTNGQTCIDCHKGIVHFLPEVHGDQNTQKSSAVQGGTLSDGSAIFATEMVKATNDKGNEVRLMPYAELMQWKVDGDQIQGTLHGWQQVGAEAVVYQELGKRITLALMDEDARNHVQVLKIVHDAVTDSDWKEISVAVNVAKEKMTSDLTTLNQYGNQLNQTQCSGCHAAIGADHYTA | not soluble
7 | ETVQVNLPVSLEDLFVGKKKSFKIGRKGPHGASEKTQIDIQLKPGWKAGTKITYKNQGDYNPQTGRRKTLQFVIQEKSHPNFKRDGDDLIYTLPLSFKESLLGFSKTIQTIDGRTLPLSRVQPVQPSQTSTYPGQGMPTPKNPSQRGNLIVKYKVDYPISLNDAQKRAIDENF | soluble
8 | IPELKDHLRIFRPRKLTLKGYRQHWVVFKETTLSYYKSQDEAPGDPIQQLNLKGCEVVPDVNVSGQKFCIKLLVPSPEGMSEIYLRCQDEQQYARWMAGCRLASKGRTMADSSYTSEVQAILAFLSLQRT | soluble
9 | MGSDKIHHHHHHLEEILKLKASDTASLEARGEANKKYGIQDFDTWVKRILSRINCSSVLDVCCGTGNQLTYYIQMPCTTNILGVDISKDSLKIARQRCEYLLSTNKKLTLKCCKMEEMFDDKEIDRQYDLISCFYGLYYAEDVDVIVERMIDHLNHKGVFLIVGPYGKNNASLFEIIQKHCMIPELVIKSSTTFMQEDLILKLVTLPGISVDTETFVNPILYPSPQAVMDYWQASTFYVPQYHSTIQQELEKRFENHDVFVVEKHIMAIIASKL | not soluble
10 | GMAEQMRRVARLFGDWPETIIWTCLEGTMGDIYVDDSQSPQSALALYGRQSFFGFLAGQPHRDLLKICEGKNIILVPQNQAWSDLIEEVYGDGVRFFTRYATKKDTEFDLGHLQKLVDDLPESFDMKLIDRNLYETCLVEEWSRDLVGNYIDVEQFLDLGLGCVILHKGQVVSGASSYASYSAGIEIEVDTREDYRGLGLAKACAAQLILACLDRGLYPSWDAHTLTSLKLAEKLGYELDKAYQAYEWR | soluble
11 | MRPEELTKRFNEFSLWMTEEGVEQMSSYRNTNWEALKTELGKLPTLRHSCKNHVPQLVKEFCLEKRRYGVNPMYVHFLFCYYKKNIEDTRGRLEDDKETLEEIQRTHDELNVKFEELNKVKTFIKKQKESKGNVYLPNEYTEKHRLQNTIDNLKDKIQILVSTRNEQLWDFDNIPDGFQPMLELHHLKKDQVVYFVEKYLQRYTLGNKHKEIQLIVGKGSHSIDNDSAIQRKIRRNYAENVRSHPKNYGILLLKVP | not soluble
12 | MGSSHHHHHHGGTGENLYFQGGSGAKKHLKRLYAPKDWMLSKLTGVFAPRPRPGPHKLRECLPLLVIIRNRLKYALNAREGEMILRQGLVHVDNHPRRDGKYPAGFMDVVEIPKTGDRFRLMYDVKGRFALVNLSEAEAQIKLMKVVNLYTATGRVPVAVTHDGHRIRYPDPHTSIGDTIVYNVKEKKCVDLIKNRQGKAVIVTGGANRGRIGEIVKVECHPGAFNIAHLKDASGAEFATRAANIFVIGKDLNNLQVTVPKQQGLRMNVIQEREERLIAAEARKNAPARGARRARK | soluble
13 | MSLNITPHDQTGSQLQDSTLSQRAIQTVRYINNINDWRYNNPSQKDGVIPDSAFGWSSLPELHNVLQADRVYVYQPDQPGLMSALLAQSRHSALVGKVVARRLLDSFGNDMQVNVPDSIADGSLVYLNEGHHHHHH | soluble
14 | GHMPTKQQLLYEGKAKKIYATDEPDVLWVEYKDSATAFNGEKKATIAGKGRLNNEISSLLFLKLREAGIANHFIEKLSPTEQLVRRVTIIPLEVVVRNVVAGSLAKRIGLEEGTPLEAPLVEFYYKNDDLGDPLLLEDHIFILKLASREEVAALKQAALAVNDVLRLHFAERNVRLIDFKLEFGRTADGAILLADEISPDTCRLWDAKTNEKLDKDVFRRDLGSLTDAYEVILQRLGGESACTK | soluble
15 | MSLSFHEIRFPASLSFGSVGGPERRTDVVTLANGFEERNTPWAHSRRRYDAGMGMRSLDDIEALIAFFEARQGQIFGFRWKDWSDYKSARPTAEVDFRDQVIGLGDGVQTGFQLLKSYRSGDSIYPRPIAKPVDGTVRMGLGQEEIKEGIDFTLDPTTGMVVLSHPPENGIEVVAGFEFDVPVRFDTDRILTSVASFQAGDVPNVPVVEVRAEGHHHHHH | soluble
16 | MGSRSSHAAVIPDGDSIRRETGFSQASLLRLHHRFRALDRNKKGYLSRMDLQQIGALAVNPLGDRIIESFFPDGSQRVDFPGFVRVLAHFRPVEDEDTETQDPKKPEPLNSRRNKLHYAFQLYDLDRDGKISRHEMLQVLRLMVGVQVTEEQLENIADRTVQEADEDGDGAVSFVEFTKSLEKMDVEQKMSIRILKHHHHHH | soluble
17 | MSAYLDWLADMGIDGAHPGGFELTKQILRKLKIDRSTSVLDVGCGTGQTAAYIAEQYGANVTAIDIHPTMIAKAKQRFAAKAVSVRLHRASVEALPFPAGTFDLALSESVLAFVSLPNALAEIRRVLKNDGLFVGIEACHERLTAAEQKQIAAFYGFRQLMTSAEWKEVLEQSGFGCRQFSYAAAAEAPSLGAPIVIALPPTPEMASMWQMHQQLTAQFGDRLGYCVFCCEP | not soluble
18 | MKYYRRALYDKFVHFYLVISDDGSSEAQLRGKMGGLVRKARKKISPDWPKEEQIHQLLQLFYGDWGFHCDPEDYFYARNLYLPYVFEHRQGMPVTLGAMVFYLAEALDLPIYPVNFPTQLILRAEVRDEVAFIDPWDGTYISQEKLQQLYEGAFGFGAKIQPEELDRADLSLLYSRFEQLAKNALIREEHNDMAYHYIKNLMITDAENPYHIRDRGLVLAQMGAYPSALKDLEFFVEHCPKDPTAAFIRTQLLELKGEINKDTFPLHLEHHHHHH | not soluble
19 | MGSDKIHHHHHHMAKLKISKKISTALINSLGAGVVPRVGVEYIAVGREKELKSLLQNLDDIAEGVAAFRFIIGNYGSGKSFLLQLIRNRAMEQGFVVADADLSSERRLAGSNNEGVATYRELMSHLATKTRPDGGALVSILEGWINKIQQEVVKETEMRPNDDGFDDQVESKIREVVQYIEGLVHGFDFGSVIIAYWRGYRMDDDNLKNAAMRWLRGEFTTKVEAKAALGVRVIIDDDSWYDYIKLFAKFVAEIGYKGLLILVDEAVHLYQISTTVTREKNYNRLLAMFNDTMQCKAEHLGIVVGGTTKFLEDPKRGLFADQAWQRRTKESRFVAQANVQENSGPVIRLNPLSEAEILTLLQRLAEIHALNFGYEQTLTNRELKEFVQEIINRLGAEALLTPGEIVRDFMSVLNILHQNPGIVFAELIHGSKFKPTAMGKNPNVDENGAAEFSL | not soluble
20 | MGSDKIHHHHHHMPDNANIAASHTQAHGSSYDDKPTQPQCDSIKLNEIGPNLLEPRAIEPSATKPNAIKHESVITKQKQKVIFIGLPRTGTTSVSVALLEQGLKVAHMAFTKEAFMQADAISDAPCFSDFKQLDELFPKAKFVYLDRELDSWVPSMQMLLSRMLPHLDAKIGRFHPIMKRSFRHTFGVGVVENPQDEQHLIDCYQHHKTEVFNYFAGRQDLLSIDVSQQGALGQLLAFMELTSAENHNLSFPKLNVGRNVASWDEYKHPNKISANAAGPEKRKYFDYKV | not soluble
21 | MGSSHHHHHHGGTGENLYFQGGSGTNVPLTQRITAFNNYVGNASNRDRVMSVVQFGAMALAAPAAAAGCPELSAHLSTILHGAAHYRTVTRFSQWLVVAPALTPSGIKSAIASHPNLLVGICKTISTAFFTVFLIGEELVLASKCNMLDPVLGKRFNRIRFVFLFWSNIARLVMSYLLLKSSKYDAVKDNQNEEKAKDHRRKVLGVADGVLQSMFCYTLLKSSAPAGPKYLSAALRSGKAVDIITSLAPPLLVVPSTPQGMLGLAASVPGFMMSVL | not soluble
22 | MGSDKIHHHHHHMAVVCRRITASSRTYSLSALTRCLQEEAAAIAVAAERLSSSQVEKALVLLERCSDQRAKLVITGVGKSGIVARKIAATFSSIGLMALYLNPLDAMHGDLGVVAQEDVCLLLSNSGETAELLEVLPHLKRRGTARIALVGKPDSSLARGSDVVLEASVDREVCPLNLAPTASTAVAMAIGDALAAIWMERRNISPADFAFNHPAGSLGKQLTLTASDLMVPVEKVQPLQPNTSLQEVICKLTQDGIGSGWVEDPSTAGLLLGLITDGDLRRALRDHSAENWASLSAAELMTADPITVDADLLAVEAIKQMECNRRKPISVLPVVGPDSSGNLLLGLLRLHDLIQAGLT | not soluble
